Measured values taken from US20170299608A1 (NGM BIOPHARMACEUTICALS, published 2017).

T1: human GFRAL, full length, expressed on HEK293 / HEK293T cells (human, UniProt Q6UXV0 20-394)
T1 sequence: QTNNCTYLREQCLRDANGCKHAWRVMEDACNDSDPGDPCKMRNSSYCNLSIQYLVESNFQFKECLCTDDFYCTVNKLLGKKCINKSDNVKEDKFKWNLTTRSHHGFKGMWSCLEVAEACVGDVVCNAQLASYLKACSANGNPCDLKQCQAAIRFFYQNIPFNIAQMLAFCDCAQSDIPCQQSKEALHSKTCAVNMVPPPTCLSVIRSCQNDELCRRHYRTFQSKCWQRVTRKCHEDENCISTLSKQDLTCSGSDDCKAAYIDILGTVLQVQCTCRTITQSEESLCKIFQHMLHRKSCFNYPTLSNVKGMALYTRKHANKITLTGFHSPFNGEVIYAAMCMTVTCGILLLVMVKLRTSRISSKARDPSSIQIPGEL

T2: mouse GFRAL, expressed on HEK293T cells (mouse, UniProt Q6SJE0 20-393)
T2 sequence: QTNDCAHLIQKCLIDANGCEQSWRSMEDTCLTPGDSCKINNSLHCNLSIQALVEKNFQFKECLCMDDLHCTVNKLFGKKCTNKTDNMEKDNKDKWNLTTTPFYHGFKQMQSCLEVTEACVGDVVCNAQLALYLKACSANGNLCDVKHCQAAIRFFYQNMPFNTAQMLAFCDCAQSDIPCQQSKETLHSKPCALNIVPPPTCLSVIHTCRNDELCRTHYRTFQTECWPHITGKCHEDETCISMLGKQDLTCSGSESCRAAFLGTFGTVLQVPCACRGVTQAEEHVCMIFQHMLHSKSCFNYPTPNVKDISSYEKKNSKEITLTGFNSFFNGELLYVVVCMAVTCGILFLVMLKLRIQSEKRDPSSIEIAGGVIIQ

T3: rat GFRAL, expressed on HEK293T cells (rat, UniProt D3ZB94 20-394)
T3 sequence: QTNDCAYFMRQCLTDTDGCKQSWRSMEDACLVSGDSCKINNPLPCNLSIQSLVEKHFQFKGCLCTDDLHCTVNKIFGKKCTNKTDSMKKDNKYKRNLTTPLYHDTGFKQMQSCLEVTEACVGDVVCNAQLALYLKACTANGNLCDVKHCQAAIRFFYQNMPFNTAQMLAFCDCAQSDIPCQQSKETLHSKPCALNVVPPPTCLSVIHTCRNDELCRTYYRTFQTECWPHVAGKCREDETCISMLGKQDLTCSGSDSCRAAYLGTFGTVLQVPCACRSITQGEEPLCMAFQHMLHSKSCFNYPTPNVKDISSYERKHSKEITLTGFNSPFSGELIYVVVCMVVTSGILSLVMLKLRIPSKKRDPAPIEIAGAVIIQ

T4: cynomolgus monkey GFRAL, expressed on HEK293T cells (cynomolgus monkey, UniProt Q6UXV0 19-394 (human entry))
T4 chain: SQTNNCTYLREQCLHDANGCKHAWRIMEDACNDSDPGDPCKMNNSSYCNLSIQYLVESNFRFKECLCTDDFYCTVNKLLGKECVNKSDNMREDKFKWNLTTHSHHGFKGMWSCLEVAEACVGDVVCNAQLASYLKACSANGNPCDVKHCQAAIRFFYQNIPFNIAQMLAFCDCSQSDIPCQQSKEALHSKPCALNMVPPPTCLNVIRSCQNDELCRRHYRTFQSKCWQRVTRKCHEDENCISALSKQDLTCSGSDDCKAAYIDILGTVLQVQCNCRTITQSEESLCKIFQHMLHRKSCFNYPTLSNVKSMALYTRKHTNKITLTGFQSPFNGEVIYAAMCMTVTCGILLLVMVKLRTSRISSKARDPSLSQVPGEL

B1: mature human GDF15 (112 amino acids) (ligand)
chain: ARNGDHCPLGPGRCCRLHTVRASLEDLGWADWVLSPREVQVTMCIGACPSQFRAANMHAQIKTSLHRLKPDTVPAPCCVPASYNPMVLIQKTDTGVSLQTYDDLLAKDCHCI
notes: also called hGDF15; unlabeled GDF15
B2: ^125I-GDF15 (radio-iodinated mature human GDF15) (ligand)
chain: ARNGDHCPLGPGRCCRLHTVRASLEDLGWADWVLSPREVQVTMCIGACPSQFRAANMHAQIKTSLHRLKPDTVPAPCCVPASYNPMVLIQKTDTGVSLQTYDDLLAKDCHCI
modifications: 125I label, site not stated
notes: Labelled form of m1; also called radio-labeled GDF15

What was measured:
[1] = molecular target: T1, human GFRAL, full length, expressed on …; experiment: cell-based or functional assay
[2] = molecular target: T2, mouse GFRAL, expressed on HEK293T cells; experiment: cell-based or functional assay
[3] = molecular target: T3, rat GFRAL, expressed on HEK293T cells; experiment: cell-based or functional assay
[4] = molecular target: T4, cynomolgus monkey GFRAL, expressed on …; experiment: cell-based or functional assay
[5] = molecular target: T1, human GFRAL, full length, expressed on …; experiment: radio-ligand competition: unlabeled GDF15 displacing 0.15 nM ^125I-GDF15 from HEK293-GFRAL cells
Procedure: HEK293-GFRAL cells were suspended in ice-cold binding buffer (Dulbecco's modified Eagle's medium containing 2 mg/ml BSA, and 25 mM HEPES, pH 7.4) and transferred to pre-wetted Multiscreen filter plates (96-well Dura PVDF 0.65 um Opaque; Millipore), which were kept on ice. Typically, 1×10⁵ of cells in 25 μl were used per well. […] Plates were then transferred to a vacuum filtration manifold (Pall Corporation) and supernatants were filtered. Each well was washed four times with 100 μl of ice cold binding buffer. Bound ¹²⁵I-GDF15 (CPM) were measured by scintillation counting (150 μl/well of EcoLite, MP Biomedicals, Santa Anna, Calif.) using MicroBeta2 Plate Counter (Perkin Elmer). The concentrations (in nM) of unlabeled inhibitors used in this experiment are as follows. GDF15 and GFRAL-Fc: 100, 25, 6.25, 1.56, 0.39, 0.098, 0.024, 0.006; 1M03: 1000, 250, 62.5, 15.63, 3.91, 0.98, 0.24, 0.06.

[6] = molecular target: T1, human GFRAL, full length, expressed on …; experiment: radioligand saturation binding to HEK293 cells expressing human GFRAL, equilibrium, 2 hr at 4 °C
Procedure: HEK293 or HEK293-human GFRAL cells were suspended in ice-cold binding buffer (Dulbecco's modified Eagle's medium containing 2 mg/ml BSA, and 25 mM HEPES, pH 7.4) and transferred to pre-wetted Multiscreen filter plates (96-well Dura PVDF 0.65 um Opaque; Millipore), which were kept on ice. Typically, 1×10⁵ of cells in 25 μl were used per well. Cells were incubated with 25 μl of binding buffer containing serial dilution of ¹²⁵I-GDF15 (2 fold serial dilution from 1000 pM to 0.1 pM final reaction concentration) with or without unlabeled GDF15 (500 nM final reaction concentration) for 2 hr at 4° C. Plates were then transferred to a vacuum filtration manifold (Pall Corporation) and supernatants were filtered. Each well was washed four times with 100 μl of ice cold binding buffer. Bound ¹²⁵I-GDF15 were measured by scintillation counting (150 μl/well of EcoLite, MP Biomedicals, Santa Anna, Calif.) using MicroBeta2 Plate Counter (Perkin Elmer). Bound (molecule/cell) was calculated according to a standard curve correlating CPM and molarity of ¹²⁵I-GDF15.
To determine the binding affinity of GDF15 to GFRAL, radio-labeled ¹²⁵I-GDF15 was used to bind HEK293 cells expressing human GFRAL (FIG. 2A) under equilibrium conditions. […] Excess amount of unlabeled GDF15 (500 nM) reduced the ¹²⁵I-GDF15-GFRAL binding to ‘non-specific’ background level. […]

Binder	EC50 of Elk/GAL4-luciferase reporter in HEK293T cells co-transfected with human GFRAL and human RET9 [1]	EC50 of Elk/GAL4-luciferase reporter in HEK293T cells co-transfected with mouse GFRAL and RET9 [2]	EC50 of Elk/GAL4-luciferase reporter in HEK293T cells co-transfected with rat GFRAL and RET9 [3]	EC50 of Elk/GAL4-luciferase reporter in HEK293T cells co-transfected with cynomolgus monkey GFRAL and RET9 [4]	IC50 [5]	Kd [6]
B1	2.1 pM	1.5 pM	6.2 pM	5.2 pM	400 pM	–
B2	–	–	–	–	–	~200 pM
